Data as given in patent US20100120685A1 (WASHINGTON UNIVERSITY, published 2010).
No end group written: not given here.

Tests used:
[1] = target: T1, HA-tagged LRP6 on LRP6-transduced HT1080 cells (UniProt O75581 20-1613, limits assumed); assay: 125I-Mesd (150-195) (5 nM) binding to LRP6-transduced HT1080 cells, 3 h at 4 C
T1 construct: whole, on cells; the only LRP6 cDNA named in the materials is human; also called mature LRP6 at the cell surface; cell surface LRP6; not shown: HA tag
Method: In this example, a truncated Mesd mutant containing the last 45 amino acids of C-terminal region was generated (FIG. 3A) and its binding affinity for LRP6 was then analyzed. […] (A) Binding analyses of ¹²⁵I-Mesd and its mutant Mesd (150-195) (5 nM) to LRP6-transduced HT1080 cells and control cells. (B) Binding analyses of ¹²⁵I-Mesd and its mutant Mesd (150-195) (5 nM) to LRP6-transduced HT1080 cells. Assays were carried out for 3 hours at 4° C. in the absence or presence of 500 nM Mesd or its mutant. Values are the means of triple determinations with the s.d. indicated by error bars.

[2] = target: T1, HA-tagged LRP6 on LRP6-transduced …; assay: binding of truncated Mesd mutant to cell surface LRP6
[3] = target: LRP5 (as used in Example 11) (UniProt O75197 32-1615, limits assumed); assay: competition with 125I-Mesd for LRP5
Chain of LRP5 (as used in Example 11) (O75197 32-1615 limits assumed): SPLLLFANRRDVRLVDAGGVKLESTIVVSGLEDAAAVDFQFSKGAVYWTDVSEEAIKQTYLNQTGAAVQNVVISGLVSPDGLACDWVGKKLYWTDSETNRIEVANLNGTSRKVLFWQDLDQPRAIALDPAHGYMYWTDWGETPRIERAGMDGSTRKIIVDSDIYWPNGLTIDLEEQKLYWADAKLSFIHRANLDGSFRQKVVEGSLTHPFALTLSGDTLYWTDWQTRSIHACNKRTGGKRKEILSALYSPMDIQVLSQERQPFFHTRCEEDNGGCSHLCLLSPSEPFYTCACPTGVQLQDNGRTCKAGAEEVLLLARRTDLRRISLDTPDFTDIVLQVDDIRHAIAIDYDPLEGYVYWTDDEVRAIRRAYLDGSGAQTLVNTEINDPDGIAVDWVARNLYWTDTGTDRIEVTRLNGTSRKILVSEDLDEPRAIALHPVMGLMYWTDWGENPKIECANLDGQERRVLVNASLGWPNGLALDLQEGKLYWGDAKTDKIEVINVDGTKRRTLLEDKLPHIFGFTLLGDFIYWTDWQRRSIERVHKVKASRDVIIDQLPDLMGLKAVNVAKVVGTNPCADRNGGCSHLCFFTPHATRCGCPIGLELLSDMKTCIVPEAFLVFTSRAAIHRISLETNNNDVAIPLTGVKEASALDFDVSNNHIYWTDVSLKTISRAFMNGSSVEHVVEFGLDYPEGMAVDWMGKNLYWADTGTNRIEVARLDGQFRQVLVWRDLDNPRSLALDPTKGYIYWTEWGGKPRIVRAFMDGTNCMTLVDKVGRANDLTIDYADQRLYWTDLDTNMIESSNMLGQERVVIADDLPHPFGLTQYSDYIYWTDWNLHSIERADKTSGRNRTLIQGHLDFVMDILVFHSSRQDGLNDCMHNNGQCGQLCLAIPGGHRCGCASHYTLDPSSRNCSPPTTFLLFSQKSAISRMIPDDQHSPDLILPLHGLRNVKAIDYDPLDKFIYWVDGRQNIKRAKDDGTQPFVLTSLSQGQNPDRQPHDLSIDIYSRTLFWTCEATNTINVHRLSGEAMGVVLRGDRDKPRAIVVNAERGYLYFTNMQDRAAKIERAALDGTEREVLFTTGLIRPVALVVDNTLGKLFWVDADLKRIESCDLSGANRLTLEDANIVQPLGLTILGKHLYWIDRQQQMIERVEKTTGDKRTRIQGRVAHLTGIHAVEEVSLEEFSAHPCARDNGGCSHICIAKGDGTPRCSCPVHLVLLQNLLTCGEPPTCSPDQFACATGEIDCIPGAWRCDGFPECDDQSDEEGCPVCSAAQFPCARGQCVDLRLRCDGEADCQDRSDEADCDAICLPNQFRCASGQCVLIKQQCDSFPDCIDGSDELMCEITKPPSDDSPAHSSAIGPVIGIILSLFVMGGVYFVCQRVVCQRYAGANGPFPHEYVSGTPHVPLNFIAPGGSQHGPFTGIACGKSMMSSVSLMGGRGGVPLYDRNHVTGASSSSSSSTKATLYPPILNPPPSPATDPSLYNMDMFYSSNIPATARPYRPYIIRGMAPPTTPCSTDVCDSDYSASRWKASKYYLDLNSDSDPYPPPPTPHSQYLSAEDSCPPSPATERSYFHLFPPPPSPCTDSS

[4] = target: LRP6 (as used in Example 11) (UniProt O75581 20-1613, limits assumed); assay: competition with 125I-DKK1 for LRP6
Chain of LRP6 (as used in Example 11) (O75581 20-1613 limits assumed): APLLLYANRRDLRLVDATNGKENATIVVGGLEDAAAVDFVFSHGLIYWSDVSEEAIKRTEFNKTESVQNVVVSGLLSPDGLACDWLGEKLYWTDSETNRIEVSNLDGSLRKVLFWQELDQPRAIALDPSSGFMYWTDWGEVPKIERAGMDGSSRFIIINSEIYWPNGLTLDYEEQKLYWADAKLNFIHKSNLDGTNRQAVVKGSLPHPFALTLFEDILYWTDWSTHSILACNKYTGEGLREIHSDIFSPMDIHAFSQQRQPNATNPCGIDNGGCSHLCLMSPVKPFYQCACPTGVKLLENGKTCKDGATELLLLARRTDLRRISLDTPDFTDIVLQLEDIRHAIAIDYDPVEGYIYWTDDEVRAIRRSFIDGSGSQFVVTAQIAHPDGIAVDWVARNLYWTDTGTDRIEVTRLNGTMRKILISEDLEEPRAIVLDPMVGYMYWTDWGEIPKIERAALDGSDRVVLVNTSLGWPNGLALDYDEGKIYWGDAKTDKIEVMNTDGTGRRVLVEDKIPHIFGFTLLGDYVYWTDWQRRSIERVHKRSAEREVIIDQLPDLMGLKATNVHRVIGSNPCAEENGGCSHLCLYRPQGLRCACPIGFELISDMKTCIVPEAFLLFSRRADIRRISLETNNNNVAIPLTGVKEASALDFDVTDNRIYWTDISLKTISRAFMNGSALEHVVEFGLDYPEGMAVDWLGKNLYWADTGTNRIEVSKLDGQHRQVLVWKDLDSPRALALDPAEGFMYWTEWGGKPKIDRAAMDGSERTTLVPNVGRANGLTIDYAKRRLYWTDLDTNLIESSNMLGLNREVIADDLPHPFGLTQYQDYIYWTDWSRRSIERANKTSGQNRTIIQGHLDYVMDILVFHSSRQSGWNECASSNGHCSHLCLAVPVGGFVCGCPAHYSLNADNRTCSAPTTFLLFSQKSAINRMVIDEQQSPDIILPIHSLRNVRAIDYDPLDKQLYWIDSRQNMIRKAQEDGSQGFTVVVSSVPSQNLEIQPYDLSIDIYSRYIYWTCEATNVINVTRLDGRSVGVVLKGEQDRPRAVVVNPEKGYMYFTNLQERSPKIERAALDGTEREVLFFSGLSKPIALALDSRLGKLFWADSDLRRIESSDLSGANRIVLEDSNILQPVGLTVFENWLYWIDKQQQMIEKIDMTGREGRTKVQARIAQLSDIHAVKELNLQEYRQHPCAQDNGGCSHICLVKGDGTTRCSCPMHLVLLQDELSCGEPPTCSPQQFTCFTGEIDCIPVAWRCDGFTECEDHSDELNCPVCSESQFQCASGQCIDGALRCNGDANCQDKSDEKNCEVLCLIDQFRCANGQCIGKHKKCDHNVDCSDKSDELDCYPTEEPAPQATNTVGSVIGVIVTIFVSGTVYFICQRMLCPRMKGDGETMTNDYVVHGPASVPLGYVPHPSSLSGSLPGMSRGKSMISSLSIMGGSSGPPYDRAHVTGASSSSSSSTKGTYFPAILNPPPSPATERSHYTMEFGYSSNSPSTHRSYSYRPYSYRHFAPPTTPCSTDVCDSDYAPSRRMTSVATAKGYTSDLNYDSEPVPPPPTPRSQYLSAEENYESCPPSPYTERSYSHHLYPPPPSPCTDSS

[5] = target: T1, HA-tagged LRP6 on LRP6-transduced …; assay: 125I-Mesd saturation binding to LRP6-transduced HT1080 cells, 3 h at 4 C, Scatchard analysis
Method: To examine whether Mesd binds with high affinity to most members of the LDLR family at the cell surface, we performed cell surface ligand binding experiments with cells stably transduced with LRP6 cDNA. Human HT1080 cells, which express undetectable levels of LRP6, were transduced with a viral vector alone (pLNCX2) or with vector containing LRP6 cDNA (Li, Y., Oncogene 23: 9129-9135, 2004) and used for ¹²⁵I-Mesd binding (FIG. 1A). ¹²⁵I-Mesd (5 nM) reached maximal binding after 2 hours incubation at 4° C. with LRP6-expressing HT1080 cells (FIG. 1A). Inclusion of excess unlabeled Mesd (500 nM) completely eliminated this binding.
(A) Time course of ¹²⁵I-Mesd (5 nM) binding to LRP6-transduced HT1080 cells and the control cells. Assay was carried out for the indicated periods at 4° C. in the absence (total) or presence of 500 nM Mesd (non-specific). (B) Saturation binding of ¹²⁵I-Mesd to LRP6-transduced HT1080 cells and the control cells. Assay was carried out at indicated concentrations for 3 hours at 4° C. in the absence (total) or presence (non-specific) of 500 nM Mesd. (C) Scatchard plots of data in B. All values are the average of triple determinations with the s.d. indicated by error bars.

[6] = target: T1, HA-tagged LRP6 on LRP6-transduced …; assay: conditioned medium on LRP6-transduced HT1080 cells, anti-Myc immunofluorescence
Method: To facilitate immunodetection, a c-Myc epitope was included at the C-terminus. The integrity of the subcloned DNA sequence was confirmed by DNA sequencing. Human DKK1-conditioned media were produced by transient transfection of HEK293 cells with pcDNADKK1-Myc in serum-free medium, and allowed to bind to LRP6-transduced HT1080 cells and control cells at room temperature for 60 minutes in the absence or presence of 1 μM Mesd. Cells were then fixed in 4% paraformaldehyde, labeled with anti-Myc monoclonal antibody and detected with Alexa-488 goat anti-mouse IgG. The immunofluorescence was detected by a laser-scanning confocal microscope (Olympus Fluoview 500).
RAP is a receptor antagonist for members of the LDLR family, and is able to inhibit the binding of most known ligands of the LDLR family members. DKK1 is an LRP6-specific ligand and antagonist. […] In these experiments, Serum-free conditioned medium was harvested from HEK293 cells transiently transfected with cDNA for human Myc-DKK1 and allowed to bind to LRP6-transduced HT1080 cells (B,C) and control cells (A) in the absence (A,B) or presence (C) of 1 μM Mesd. Cell-surface-bound Myc-tagged DKK proteins were fixed and detected by immunofluorescence staining with anti-Myc antibody. (D) DKK1 binding to cell surface LRP6 is inhibited by Mesd. […] (E) LRP6-mediated DKK1 degradation is inhibited by Mesd. […]

[7] = target: T1, HA-tagged LRP6 on LRP6-transduced …; assay: 125I-DKK1 (5 nM) binding to LRP6-transduced HT1080 cells, 3 h at 4 C
Method: RAP is a receptor antagonist for members of the LDLR family, and is able to inhibit the binding of most known ligands of the LDLR family members. DKK1 is an LRP6-specific ligand and antagonist. […] In these experiments, Serum-free conditioned medium was harvested from HEK293 cells transiently transfected with cDNA for human Myc-DKK1 and allowed to bind to LRP6-transduced HT1080 cells (B,C) and control cells (A) in the absence (A,B) or presence (C) of 1 μM Mesd. Cell-surface-bound Myc-tagged DKK proteins were fixed and detected by immunofluorescence staining with anti-Myc antibody. (D) DKK1 binding to cell surface LRP6 is inhibited by Mesd. […] (E) LRP6-mediated DKK1 degradation is inhibited by Mesd. LRP6-mediated […] (5 nM) degradation was carried out for 4 hours at 37° C. in the absence or presence of 500 nM RAP or 500 nM Mesd. Values are the means of triple determinations with the s.d. indicated by error bars. Bar, 10 μm. As expected, Myc-tagged DKK1 binds to LRP6 cells (FIG. 9B) but not to the control cells (FIG. 9A).

T1 sequence (O75581 20-1613 limits assumed): as above

B1: Mesd (150-195) (peptide)
chain: QMYPGKGGGSKEKNKTKPEKAKKKEGDPKPRASKEDNRAGSRREDL
modifications: also: 125I-labelled where used as tracer
notes: also called truncated Mesd mutant containing the last 45 amino acids of C-terminal region; Mesd (150-195) peptide; not shown: N-terminal polyhistidine tail from pET-30a(+) if made like the other recombinant Mesd mutants
B1: binds [1].

B2: Mesd (12-195) (other)
chain: RKKKDIRDYNDADMARLLEQWEKDDDIEEGDLPEHKRPSAPIDFSKLDPGKPESILKMTKKGKTLMMFVTVSGNPTEKETEEITSLWQGSLFNANYDVQRFIVGSDRAIFMLRDGSYAWEIKDFLVSQDRCAEVTLEGQMYPGKGGGSKEKNKTKPEKAKKKEGDRKPRASKEDNRAGSRREDL
notes: also called truncated Mesd mutant lacking the N-terminal region; not shown: N-terminal polyhistidine tail from pET-30a(+)
B2: binds [2].

B3: recombinant mouse Mesd protein (wild type) (other, not shown: small tags and cut ends)
chain: ADTPGEATPPPRKKKDIRDYNDADMARLLEQWEKDDDIEEGDLPEHKRPSAPIDFSKLDPGKPESILKMTKKGKTLMMFVTVSGNPTEKETEEITSLWQGSLFNANYDVQRFIVGSDRAIFMLRDGSYAWEIKDFLVSQDRCAEVTLEGQMYPGKGGGSKEKNKTKPEKAKKKEGDRKPRASKEDNRAGSRREDL
modifications: 125I-labelled (IODO-GEN method) where used as tracer
notes: Expressed in E. coli BL21(DE3) from pET-30a(+); 'All the recombinant Mesd proteins lack the Mesd signal peptide'; also called Mesd polypeptide
In the case of B3, the “fold reduction of 125I-Mesd binding” value [3] is reported as ~10 fold, the “fold reduction of 125I-DKK1 binding” value [4] is reported as > 2 fold and the Kd [5] is reported as ~3.3 nM.

KGGGSKEKNKTKPEKAKKKEGDPKPRASKEDNRAGSR (also called the oligopeptide) [Mesd oligopeptide KGGGSKEKNKTKPEKAKKKEGDPKPRASKEDNRAGSR] was tested, and the “fold reduction of 125I-Mesd binding” value [3] was ~10 fold and the “fold reduction of 125I-DKK1 binding” value [4] was > 2 fold.

B4: human Myc-tagged DKK1 (conditioned medium of HEK293 cells) (ligand, UniProt O94907 32-266, looked up, not shown: small tags and cut ends)
chain: TLNSVLNSNAIKNLPPPLGGAAGHPGSAVSAAPGILYPGGNKYQTIDNYQPYPCAEDEECGTDEYCASPTRGGDAGVQICLACRKRRKRCMRHAMCCPGNYCKNGICVSSDQNHFRGEIEETITESFGNDHSTLDGYSRRTTLSSKMYHTKGQEGSVCLRSSDCASGLCCARHFWSKICKPVLKEGQVCTKHRRKGSHGLEIFQRCYCGEGLSCRIQKDHHQASNSSRLHTCQRH
notes: also called Myc-DKK1; DKK1-Myc
B4: binds [6].

B5: human recombinant DKK1 protein (ligand, UniProt O94907 32-266, looked up)
chain: TLNSVLNSNAIKNLPPPLGGAAGHPGSAVSAAPGILYPGGNKYQTIDNYQPYPCAEDEECGTDEYCASPTRGGDAGVQICLACRKRRKRCMRHAMCCPGNYCKNGICVSSDQNHFRGEIEETITESFGNDHSTLDGYSRRTTLSSKMYHTKGQEGSVCLRSSDCASGLCCARHFWSKICKPVLKEGQVCTKHRRKGSHGLEIFQRCYCGEGLSCRIQKDHHQASNSSRLHTCQRH
modifications: 125I-labelled (IODO-GEN method)
notes: Bought
B5: binds [7].

B6: Mesd (12-155) (other)
chain: RKKKDIRDYNDADMARLLEQWEKDDDIEEGDLPEHKRPSAPIDFSKLDPGKPESILKMTKKGKTLMMFVTVSGNPTEKETEEITSLWQGSLFNANYDVQRFIVGSDRAIFMLRDGSYAWEIKDFLVSQDRCAEVTLEGQMYPGK
notes: also called truncated Mesd mutant lacking both the N-terminal and C-terminal regions; not shown: N-terminal polyhistidine tail from pET-30a(+)
B6: no binding [2].
